T1: soluble CD73 in human serum/peripheral blood (human, UniProt P21589 27-549, limits assumed)
T1 construct: also called sCD73; free soluble CD73
T1 sequence (looked up): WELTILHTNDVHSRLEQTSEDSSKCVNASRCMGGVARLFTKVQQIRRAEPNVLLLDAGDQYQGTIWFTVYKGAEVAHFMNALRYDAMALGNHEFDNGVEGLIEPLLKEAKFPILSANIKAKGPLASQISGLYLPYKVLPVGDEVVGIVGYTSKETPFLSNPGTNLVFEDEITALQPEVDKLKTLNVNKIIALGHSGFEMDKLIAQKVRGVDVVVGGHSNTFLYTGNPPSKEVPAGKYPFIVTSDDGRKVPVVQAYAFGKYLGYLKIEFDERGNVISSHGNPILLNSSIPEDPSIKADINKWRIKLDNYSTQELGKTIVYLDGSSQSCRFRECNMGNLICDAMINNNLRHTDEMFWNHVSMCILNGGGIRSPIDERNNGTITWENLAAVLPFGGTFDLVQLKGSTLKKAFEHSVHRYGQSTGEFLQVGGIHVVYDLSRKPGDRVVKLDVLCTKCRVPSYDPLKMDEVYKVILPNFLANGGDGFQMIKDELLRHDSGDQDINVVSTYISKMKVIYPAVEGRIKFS

T2: cynomolgus CD73 (in cell lines) (cynomolgus monkey, UniProt A0A2K5V5U7 27-549)
T2 construct: whole, on cells; also called Cyno CD73
T2 sequence: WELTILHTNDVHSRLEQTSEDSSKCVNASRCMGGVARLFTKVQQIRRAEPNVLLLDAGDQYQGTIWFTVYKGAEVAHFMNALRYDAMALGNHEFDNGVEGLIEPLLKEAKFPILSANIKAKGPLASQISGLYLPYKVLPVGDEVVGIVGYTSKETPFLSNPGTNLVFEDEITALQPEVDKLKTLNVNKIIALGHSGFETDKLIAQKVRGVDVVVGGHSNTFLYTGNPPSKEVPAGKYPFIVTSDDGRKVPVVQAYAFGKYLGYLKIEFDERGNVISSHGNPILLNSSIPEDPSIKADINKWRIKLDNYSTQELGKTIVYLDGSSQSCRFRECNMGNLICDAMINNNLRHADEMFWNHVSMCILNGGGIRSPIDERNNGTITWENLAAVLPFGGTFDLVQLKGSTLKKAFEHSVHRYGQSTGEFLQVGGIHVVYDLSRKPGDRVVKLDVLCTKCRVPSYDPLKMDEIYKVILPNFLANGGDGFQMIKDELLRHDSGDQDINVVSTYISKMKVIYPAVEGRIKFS


Legend:
[1] = target: T1, soluble CD73 in human serum/peripheral …; assay: MSD ECL sandwich immunoassay, 6E11 as capture
Procedure: (§1) The free sCD73 assay utilizes biotinylated anti-CD73 antibody 6E11 (SEQ ID NOs: 28 and 29) to capture drug-unbound sCD73 from the test samples (as it competes with CD73.A for binding to hCD73). MSD Streptavidin Gold assay plates were coated overnight at 2 to 8° C. with 50 μL/well of biotinylated 6E11 diluted to a final concentration of 0.5 μg/mL in 1× DPBS buffer. The following day, the wells were washed using PBS with 0.05% Tween 20 and 0.5× StabilCoat prepared in water was added to wells at 100 μL per well and incubated at room temperature for one hour. Wells were then aspirated and plates were dried and pouched with desiccant. Test samples drawn from study animals were kept frozen at −70° C. […] Bound sCD73 was subsequently detected using ruthenylated anti-CD73 antibody 4C3 (SEQ ID NOs: 38 and 39) (previously prepared with 0.1% Proclin 300 at working concentration) at a final concentration of 0.125 μg/ml in Starting Block (PBS) at 50 μL per well. The plates were incubated for one hour at 25° C. with shaking, at about 500 rpm, and then washed again before adding 1× MSD Read Buffer prepared in water and then read on MSD Sector Imager 600 by electrochemiluminescenece (ECL) technology. […] Test samples were quantified using a 4-parameter logistic fit regression model.

[2] = target: T2, cynomolgus CD73 (in cell lines); assay: CD73 binding in cell lines (cyno), median EC50; method not stated
[3] = target: T1, soluble CD73 in human serum/peripheral …; assay: free (not bound by CD73.A) sCD73 ECL immunoassay on patient samples
Procedure: as §1

| binding result [1] | EC50 [2] | binding result [3] | Binder |
| --- | --- | --- | --- |
| binds | – | – | anti-CD73 antibody 6E11 (antibody, human IgG1, kappa, V domains shown, biotinylated (sites not given), Used as the biotinylated capture reagent on streptavidin plates; also called biotinylated 6E11) VH: EVQLVESGGALVQPGRSLRLSCAASGFTFDDYAMHWVRQAPGKGLEWVSGITWNSGGIGYADSVKGRFTISRDNAKNSLYLQMNSLRAEDTALYYCAKDRYYSSWLLFDNWGQGILVTVSS VL: not shown |
| – | 0.3 nM | binds | CD73.4-IgG2C219S.IgG1.1f (antibody, V domains shown, IgG2 CH1/hinge (C219S) with IgG1.1f CH2/CH3 hybrid constant region; also called CD73.A; CD73.4-IgG2CS-IgG1.1f) VH: QVQLVESGGGVVQPGRSLRLSCAASGFTFSNYGMHWVRQAPGKGLEWVAVILYDGSNKYYPDSVKGRFTISRDNSKNTLYLQMNSLRAEDTAVYYCARGGSSWYPDSFDIWGQGTMVTVSS VL: DIQMTQSPSSLSASVGDRVTITCRASQGISSWLAWYQQKPEKAPKSLIYAASSLQSGVPSRFSGSGSGTDFTLTISSLQPEDFATYYCQQYNSYPLTFGGGTKVEIKR |
